Drawing on PMC3272482, this text covers stoichiometry N for one substance.

Holding throughout (test): cryo-EM structure
Test [1] has as its target Escherichia coli DegQ, protease deficient S187A mutant (Escherichia coli) (UniProt P39099).
For test [2] the target is unchanged. The source holds these as a separate data set.
For test [3] the target is unchanged. This is another data set of the same source.

Values joined by “and” are separate entries in the source; they are usually repeats but may differ in a detail not shown here. Equal values may be shown once. Read-outs that look alike come from different tables or passages of the source.

For orientation: stoichiometry N means the number of molecules, sites or subunits per partner or assembly. As to “Escherichia coli DegQ, protease deficient S187A mutant (from UniProt P39099 28-455) (enzyme)”, the stoichiometry N in test [1] is 24 protomers and 12 protomers; in test [2] it was 12 protomers; in test [3], 12 protomers.
